Experimental data taken from patent publication US10494417B2, “Peptide inhibitors of BCR-ABL oligomerization” (University of Utah Research Foundation, priority 2014, dated 2019).
Entries after “also recorded” stand apart in the source; their conditions may differ.

Assays:
[1] = system: CML CD34+ cells expressing BCR-ABL1T315I; experiment: Liquid culture of primary T315I CML cells; type: cell-based, human; settings: CC^mut3 or increasing concentrations of ponatinib (FIG. 28C)
Method: Cell proliferation was assessed using the CellTiter 96® AQueous One Solution Cell Proliferation Assay (MTS assay, Promega) according to manufacturer instructions. Briefly, 5,000 viable cells were added to a single well in 96-well plate in 100 μL RPMI1640. Three independent samples were seeded in duplicate for each time point. […] In some experiments, cell proliferation was assessed using a Neubauer chamber and trypan blue dye exclusion.

K562 cells [2] = experiment: Nuclear (DNA) segmentation apoptosis assay in transfected K562 cells; type: cell-based, human; settings: 48 h, vs EGFP control
Method: CC^mut3 was then tested for its ability to induce apoptosis in K562 cells. Apoptosis was observed using 3 different methods: 1) nuclear segmentation; 2) induction of the effector Caspase-3/7; and 3) 7AAD/Annexin V staining.
Nuclear segmentation analysis was performed as previously described (16). Briefly, immediately prior to cellular analysis, 2-well live cell chambers were treated for 15 min with poly-L-lysine (Sigma-Aldrich, St. Louis, Mo., USA), to allow cell adhesion in the wells. Forty-eight h following transfection, the transfected K562 cells were transferred to the pretreated 2-well live cell chambers. Cells were incubated for 15 min at 37° C. following the addition of 0.3 μL Hoechst H33342 nuclear stain (Life Technologies, Carlsbad, Calif., USA). Cells were then imaged using an inverted fluorescence microscope (Olympus IX701F, Scientific Instrument Co., Sunnyvale, Calif., USA) equipped with an F-view Monochrome CCD camera. Fields of view were selected based on EGFP fluorescence when viewing using a 40× oil immersion objective. Nuclei from cells that were positively transfected (positive for EGFP fluorescence) were categorized as either healthy (round or kidney-shaped nuclei) or segmented (punctate staining of nuclei), and the percentage of cells with segmented DNA was calculated (n=3 in replicate).

K562 cells [3] = experiment: Colony forming assay of protein-treated K562 cells; type: cell-based, human; settings: proteins 30 μM, imatinib 1.0 μM; colonies counted after 7 days
Method: This experiment was carried out as before with the modifications noted below. […] 1×10^3 cells (in 1.1 mL) were seeded in a 6-well plate (CellStar), in duplicate for each treatment. 7 days after seeding cells, colonies were counted in a […] area per well. Independent treatments were tested 3 times in duplicate (n=3). All reagents for the CFA were purchased from Stem Cell Technologies, Vancouver, BC, Canada.

[4] = target: T1, isolated CC domain from Bcr-Abl (Homo sapiens, UniProt P11274, C38A/E48R/K39E/L45D/Q60E/S41R); experiment: Mammalian two-hybrid assay of coiled-coil dimerization; type: cell-based; settings: CC^mut3 with CC^mut3
T1 construct: using the isolated CC domain from Bcr-Abl instead of the full-length protein; expressed in transfected cells
T1 sequence (P11274 1-72 C38A/K39E/S41R/L45D/E48R/Q60E): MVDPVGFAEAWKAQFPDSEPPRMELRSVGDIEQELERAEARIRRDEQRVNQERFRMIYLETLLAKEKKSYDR
Method: (§1) As mentioned above, the design process of CC^mut3 involved favoring hetero-dimerization with Bcr-Abl while avoiding homo-dimerization with another CC^mut3 molecule. Thus, a mammalian two-hybrid assay was performed to measure the likelihood of each scenario, using the isolated CC domain from Bcr-Abl instead of the full-length protein (for ease of use).

[5] = target: T2, isolated CC domain from Bcr-Abl (Homo sapiens, UniProt P11274); experiment: as above; type: cell-based; settings: isolated CC domain from Bcr-Abl
T2 construct: using the isolated CC domain from Bcr-Abl instead of the full-length protein; expressed in transfected cells
T2 sequence (P11274 1-72): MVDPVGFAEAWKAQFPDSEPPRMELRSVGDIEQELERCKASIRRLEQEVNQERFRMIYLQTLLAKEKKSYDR
Method: as §1

mCherry-tagged Bcr-Abl = target: T3, mCherry-tagged Bcr-Abl (Homo sapiens, UniProt P00519+P11274); experiment: Colocalization analysis in Cos-7 cells; type: cell-based; settings: EGFP-tagged CC^mut3 co-transfected with mCherry-tagged Bcr-Abl
T3 construct: expressed in transfected cells; host or cells: Cos-7
T3 sequence (P11274 1-72 limits assumed): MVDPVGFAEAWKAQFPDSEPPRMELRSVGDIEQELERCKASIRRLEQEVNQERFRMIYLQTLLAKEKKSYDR
Method: Next, the ability of CC^mut3 to bind to BCR-ABL in live cells was analyzed (FIG. 8B). Colocalization analysis was performed by co-transfecting mCherry-tagged Bcr-Abl and EGFP-tagged CC^mut3 into Cos-7 cells.

parental Ba/F3 cells = experiment: Colony forming assay of transfected parental Ba/F3 cells; type: cell-based, mouse; settings: CCmut3 vs EV
Method: Both EGFP and EGFP-CC^mut3 were transfected into separate groups of cells on day 0. One day following transfection, 1.0×10^6 cells per treatment group were collected and re-suspended in 1.0 mL of PBS. Through serial dilutions, 1.0×10^3 cells in IMDM (Isocove's modified Dulbecco's media) with 2% FBS were seeded into methylcellulose medium in the absence of cytokines (MethoCult H4230 for K562 cells and MethoCult M3234 for p210 and p210-T315I cells) or in the presence of cytokines (MethoCult GF M3434 for parental Ba/F3 cells). Ponatinib was then added in the correct molar amounts (0, 100 pM, 1 nM, or 10 nM) to the methylcellulose medium. Colonies formed were counted after 7 days of incubation. All reagents were purchased from Stem Cell Technologies, Vancouver, BC, Canada. Assay was run three separate times (n=3) in duplicate.
Following selection of transfected cells by cell sorting, viable cells were enumerated and seeded into methylcellulose as described previously (Dixon, A. S., et al. (2011) J. Biol. Chem. 286, 27751-27760). Briefly, mCherry-positive Ba/F3 cells were re-suspended in IMDM with 2% FBS (Stem Cell Technologies) at a concentration of 10,000 cells/mL. […] Colonies were counted 7 days later in an area of […] per dish. […]

B1: CCmut3: modified Bcr-Abl coiled-coil domain (residues 1-72) with mutations C38A, K39E, S41R, L45D, E48R, Q60E (protein)
chain: MVDPVGFAEAWKAQFPDSEPPRMELRSVGDIEQELERAEARIRRDEQRVNQERFRMIYLETLLAKEKKSYDR
effect in liquid culture [1]: no effect
induction of apoptosis (nuclear/DNA segmentation) (K562 cells [2]): increase in apoptosis; also recorded: significantly induced apoptosis
induction of apoptosis (nuclear/DNA segmentation) (K562 cells [2]; listed as CC^mut3): induces apoptosis; also recorded: causing apoptosis via nuclear segmentation
colony forming (transformative ability) (K562 cells [3]): ineffective at reducing cell proliferation and colony forming compared to untreated cells
homo-oligomerization [4]: strongly disfavoring homo-oligomerization
hetero-dimerization with BCR-ABL [5]: favors hetero-dimerization; also recorded: strongly favors hetero-dimerization
intracellular colocalization with BCR-ABL (Costes' coefficient) (mCherry-tagged Bcr-Abl): intracellular colocalization
colony formation, in words (parental Ba/F3 cells): not affected; also recorded: no effect on parental Ba/F3 controls
colony formation, in words (parental Ba/F3 cells; listed as CC^mut3): not affected; also recorded: no difference between treatment groups
